Test [1] has as its target NS3aH1-VPR, cells treated with grazoprevir (hepatitis C virus). The test is described as follows: cell-based or functional assay.
Test [2] concerns the target NS3aH1-VPR, cells treated with danoprevir (hepatitis C virus). The test is described as follows: cell-based or functional assay.
Test [3] concerns the target NS3a (active), Avi-His6-NS3a catalytically active. Put plainly: fluorescence polarization; FB50. Particulars: chains peptide; modification not given. In general terms: Polarisation of emitted light reports the rotation of a fluorescent probe.
Test [4] shares this target. The test is described as follows: fluorescence polarization; FB50. Particulars: chains peptide; modification not given. The source holds these as a separate data set.

These results are taken from patent US20220025003A1, “REAGENTS AND METHODS FOR CONTROLLING PROTEIN FUNCTION AND INTERACTION” (University of Washington, priority 2018, published 2022).

Ends that are not written are not given here.

B1: NLS-MCP-GNCR1 (from NLS-MCP-GNCR1-P2a-BFP) (designed binder)
chain: MPKKKRKVGSMASNFTQFVLVDNGGTGDVTVAPSNFANGIAEWISSNSRSQAYKVTCSVRQSSAQNRKYTIKVEVPKGAWRSYLNMELTIPIFATNSDCELIVKAMQGLLKDGNPIPSAIAANSGIYGSGGSGDIEKLCKKAEEEAKEAQEKADELRQRHPDSQAAEDAEDLANLAVAAVLTACLLAQEHPNADIAKLCIKAASEAAEAASKAAELAQRHPDSQAARDAIKLASQAARAVILAIMLAAENPNADIAKLCIKAASEAAEAASKAAELAQRHPDSQAARDAIKLASQAAEAVERAIWLAAENPNADIAKKCIKAASEAAEEASKAAEEAQRHPDSQKARDEIKEASQKAEEVKERCKSEQKLISEEDLGSGATNFSLLKQAGDVEENPG
Turning to B1, in test [1], the EC50 of the grazoprevir titration, CXCR4 immunofluorescence is 0.16 nM.

B2: NLS-PCP-DNCR2 (from NLS-PCP-DNCR2-P2a-BFP) (designed binder)
chain: MPKKKRKVGSMSKTIVLSVGEATRTLTEIQSTADRQIFEEKVGPLVGRLRLTASLRQNGAKTAYRVNLKLDQADVVDSGLPKVRYTQVWSHDVTIVANSTEASRKSLYDLTKSLVATSQVEDLVVNLVPLGRGSGSGSSDEEEARELIERAKEAAERAQEAAERTGDPRVRELARELKRLAQEAAEEVKRDPSSSDVNEALKLIVEAIEAAVDALEAAERTGDPEVRELARELVRLAVEAAEEVQRNPSSSDVNEALHSIVYAIEAAIFALEAAERTGDPEVRELARELVRLAVEAAEEVQRNPSSRNVEHALMRIVLAIYLAEENLREAEESGDPEKREKARERVREAVERAEEVQRDPSGWLNHEQKLISEEDLGSGATNFSLLKQAGDVEENPG
For B2, the EC50 of the danoprevir titration, GFP fluorescence in test [2] was determined as 0.79 nM.
In general, EC50 refers to the concentration that produces a half-maximal response. As for GSGSGELDELVYLLDGPGYDPIHSD (not fully specified (N-terminus)) [FAM-ANR], the EC50 was 40 nM in test [3] and 30 nM in test [4].
